Measured values published in paper PMC8782923, “A Klotho-derived peptide protects against kidney fibrosis by targeting TGF-β signaling” (Nature Communications, 2022).

Biological target: Recombinant TGF-β receptor 2 protein (UniProt P37173)
Experiment: SPR; Biacore T200, 25 °C; TβR2 amine-coupled on a CM5 chip (50 µg/ml in 10 mM acetate pH 4.0); peptides in PBS injected at 60 µl/min, 180 s association, 540 s dissociation; 1:1 binding model

Recombinant TGF-β receptor 2 protein, sequence (P37173 23-166): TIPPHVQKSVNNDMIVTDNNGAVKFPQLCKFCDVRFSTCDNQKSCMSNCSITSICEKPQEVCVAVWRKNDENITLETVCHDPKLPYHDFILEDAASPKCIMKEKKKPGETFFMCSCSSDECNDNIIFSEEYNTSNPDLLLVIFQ

KP12 (peptide) was tested. Which koff did it give?
The koff was 0.00233 s⁻¹.
